# Assay: soluble on expression in E. coli; label from the status in PepcDB or PDB records
row,Sequence,soluble on expression in E. coli
1,SHSSSRASFTTRGDIRRQVEGFSASGERNKDTVVDLSTFFAERGYSNNQAPTKYWEEKLVTIGNVVVPKWVPVKERNSSNKQKEGEDEVFIGFEAIYYPEQPPERQPITLYQEENKVEEEEQSRE,soluble
2,SIAYIEPYFLENDAEAASAATAAGKSTDGVSESLNIQGEILCGGAAADIAGRDFGGMNCVKPLAVVRPVGPEDIAGAVKAALRSDKLTVAARGNGHSINGQAMAEGGLVVDMSTTAENHFEVGYLSGGDATAFVDVSGGALWEDVLKRCVSEYGLAPRSWTDYLGLTVGGTLSNAGVSGQAFRYGPQTSNVTELDVVTGNGDVVTCSEIENSELFFSVLGGLGQFGIITRARVLLQPAPDMVRWIRVVYTEFDEFTQDAEWLVSQKNESSFDYVEGFVFVNGADPVNGWPTVPLHPDHEFDPTRLPQSCGSVLYCLELGLHYRDSDSNSTIDKRVERLIGRLRFNEGLRFEVDLPYVDFLLRVKRSEEIAKENGTWETPHPWLNLFVSKRDIGDFNRTVFKELVKNGVNGPMLVYPLLRSRWDDRTSVVIPEEGEIFYIVALLRFVPPCAKVSSVEKMVAQNQEIVHWCVKNGIDYKLYLPHYKSQEEWIRHFGNRWSRFVDRKAMFDPMAILSPGQKIFNRSL,soluble
3,SIEKARSAAAKEVQKMKTSDKAEATHYLQMGAYADRQSAEGQRAKLAILGISSKVVGYQAGHKTLYRVQSGNMSADAVKKMQDELKKHEVASLIRSIESK,not soluble
4,SIERLGYLGFAVKDVPAWDHFLTKSVGLMAAGSAGDAALYRADQRAWRIAVQPGELDDLAYAGLEVDDAAALERMADKLRQAGVAFTRGDEALMQQRKVMGLLCLQDPFGLPLEIYYGPAEIFHEPFLPSAPVSGFVTGDQGIGAFVRCVPDTAKAMAFYTEVLGFVLSDIIDIQMGPETSVPAHFLHCNGRHHTIALAAFPIPKRIHHFMLQANTIDDVGYAFDRLDAAGRITSLLGRHTNDQTLSFYADTPSPMIEVEFGWGPRTVDSSWTVARHSRTAMWGHKSVRGQR,soluble
5,SIHSMDKPIESKEGNVSVGKFKLSDSSINNPEEIISVPSSTTEIEKVEMKPGRGEGLNPELLPASVSELLIPSPFQPQIPDGNNSSVEFHPSKVVLIGTAHVSEKSVNEVRSAIRNLKPDIVAVELCRARYDSLKGNVPETNQVPIKEILTEGKVYYYLVHWLLAYVQKKIGEDMGVKPGSEMISAIEEAEASGAKIALIDRDIQVTLQRFWGRMKFTEKIKMLGSLIGGLIGIGKGAEIDIDQITQQDVVTALVSELREFAPTAAETLIDERDAYLAGSILRTAAGGNKTIVAVIGAGHKPGVINYLENPKSLPPLNSLMQIPKKR,not soluble
6,SISKEEILKPIWYAFTALDLDRNGKVSKSQLKVLSHNLCTILKIPHNTSALEEHFKDDDEGPVSTQGYMPYLNTFILSKIQPNFDFVELNKMCWTLSAPKHINTMNLLMSEKDAFRVWCIFNFLSEDKYPLTIVTEELEYFLRKLLTAMGCSWNEGRFEDYKMHLNAKTWKHKVSKHEGLLKLVQPGGKTPSKMTNWGQAAFTESELNELEKMWQVNKNRSEEE,soluble
7,SKARTVAGPVGGSLSVQCPYEKEHRTLNKYWCRPPQIFLCDKIVETKGSAGKRNGRVSIRDSPANLSFTVTLENLTEEDAGTYWCGVDTPWLQDFHDPVVEVEVSVFPAS,soluble
8,SKDIDMGKEYIIPSPGYRSDRDRSAVPGQHRDPEEPRFRRTRSLECQDALETAARVEGLSLDISVHSHLQILDEEHSKGKYHHGLSVLKPFRTTTKHQHPVDNAGLFSYMTFSWLSPLARVVHKKGELLMEDVWPLSKYESSDVNSRRLERLWQEELNEVGPDAASLRRVVWIFCRTRLILSIVCLMITQLAGFSGPNFQDGCILRSE,soluble
9,SKDVLADYKELFRQFSISDIAVWVSTPSFAGVCITEKEFNSKMLPNLESMIFIGEALSKNLTKELMSRFPNTRIINGYGPTEATVGVSVNDMTQKAIDDEK,not soluble
10,SKFGKSLSNQIEQTLPEWQDKFLSYKELKKRLKLIGSKTADRPVKRLRLDEFSVGISKEEINFIQLLEDELEKFNNFFVEKEEEYIIRLKEFRDRIAKAKDSMEKMIKIRKEIVDFHGEMVLLENYSALNYTGLVKILKKYDKRTGDLMRLPFIQKVLQQPFYTTDLLFKLVKESEAMLDQIFPANETESEIIQAELSEHKFMESLHMKSTIAALRVLKEIRSGSSTVSVFSLPPLQLNGLDETWKKIPLLEQEAK,soluble
11,SKNGLKKRKLTNPVQLDDFDGYIKDMAKDSDYKFSLQFEELKLIGLDIPHFAADLPMNRCKNRYTNILPYDFSRVRLVSMNEEEGSDYINANYIPGYNSPQEYIATQGPLPETRNDFWKMVLQQKSQIIVMLTQCNEKRRVKCDHYWPFTEDPIAYGDITVEMLSEEEHTDWVYRNFRISYADEVQDVMHFNYTAWPDHGVPTANAAESILQFVQMVRQKSVKSKGPMIIHCSAGVGRTGTFIALDWLLQHIRDHEFVDILGLVSDMRSYRMSMVQTEEQYIFIHQCVQLMWQKKKQQFCISDVIYENVSKS,soluble
12,SKREMPSMYPQAKGILSALKEKGIEMAIASRSPTSDIANTFLDKLNIKPMFVAKEIYSSWSHKTEHFQKIHTRTGVPFTAMLFFDDEDRNIKSVSKMGVTSILVGDGVTLGAFRQGLTEFTQN,not soluble
13,SKRVNSCVKSDEHVLEELETEGERQLKSLLQHQLDTSVSIEECMSKKESFAPGTMYKPFGKEAAGTMTLSQFQTLHEKDQETASLRELGLNETEILIWKSHVSGEKKTKLRATPEAIQNRLQDIEERISERQRILCLPQRFAKSKQLTRREMEIEKSLFQGADRHSFLKALYYQDEPQKKNKGDPMNNLESFYQEMIMKKRLEEFQLMRGEPFASHSLVSATSVGDSGTAESPSLLQDKGKQAAQGKGPSLHVANVIDFSPEQCWTGPKKLTQPIEFVPEDEIQRNRLSEEEIRKIPMFSSYNPGEPNKVLYLKNLSPRVTERDLVSLFARFQEKKGPPIQFRMMTGRMRGQAFITFPNKEIAWQALHLVNGYKLYGKILVIEFGKNKKQRSNLQATSLISCATGSTTEISGS,not soluble
14,SKSFNYSVSFNLSDYQGTVLKYSNPKGLIYDYYVGKKMGTIWGYTTDHIMTDPAEAKAINDSGVQNKFGGDWVVGDIKYVNLDDDPNINDGNQTLEDHGDLSIIGNDTPRYNFGFGFNADWNGIDFSMFLQGTMKRDLWLEGPVAFGLGGGQWGSNVWKNTLDCWREDGSNPDPWLPRLYLWSTSKNLQKQTRYMDTGAYCRLKNIQLGYSLPGAIINKVGLEKVRIYFSGDNLLTFSGINENFDPEAPWGGAYPISKSISFGVNVTF,not soluble
15,SLAGVSYAAPWWVSLLHRLPHFDLRWEATSSQFRPEDADYQQAASAYGNGETSDGIHRATYSLRHANRTVAGVQDRVWDTAAALNRTAEPNLQSLERQLAGRQEPLRAVQRLQTGAARSSKGSAACSIPHTWQQKRGPDDDGEEETAPGPR,soluble
16,SLAMAAGANVPLDKANVDLTDKASLQNGAKLFMNYCFACHSTQYQRYERVATDLDIPADLMKENLIFNPEAKIGDLMVNAMPPKQAANWFGAPPPDLTLVARVRGADWLYTYLRSFYVDPSRPFGVNNIVFPSVGMPHVLEELQGIPTPVYGTKMVDGEEVKVVVGTETNGTGELSEGEYDKAVGDLVNFLVYAGDP,not soluble
17,SLANLSKERQQALLKILHYIQDGGDFTEAKKMFQESFDKVDVSEITAAERELIAQGLDPRKIQYLCNVHADVFKGNIKENAANPDFATPGHPVNTLKQENVVIKSLVNDYLLPNLKKWEKDHSEQTLSKIKQALSDLATIGKHYARKETSFFPLMTKYGITAPPQVMWGVDDKIRRLIKEANNVVNENDVDPAKLRKIIDEVSHEVLEMIFKEEEIMVPMIDEVASPADWGNVKDEEKQIGYTLINPPMNWKPKEE,soluble
18,SLEKELKVITIDELKKYIRNNEEDKIEEVDVVTSATCGIMSGTAGIFHIPFNEVFKRAEEIYLNDIKGVVGICPNEFLGKVDAIFYGEVGFLFKDLVKGKVVEAKAISEGKIYKNEITIDDLPTAKMIGTRMAFKNYTAITNLSDEEVNTIFHRLPLKKGEASFSGCGMLNPLENMVIKDEKDVVGKKALLNGAEAIILGFGTRASIEKPNLMMSADMKDMDAYYLGGFVTSNGIEIYNTIAVPIKVDEHKEALKKLDKDITLPLVNIFGREIIDIGSYAEVWENVDLRPKIYQDKCKNCRECLVEKYCPTFAIKRENGKIKITEDCFGCGVCNICPYGVFKTKLGSVCGIPITCRQSDRKRALKLAKELKKKIERGEFKI,not soluble
19,SLEKLEFEDEAVEDSESGVYMRFMRSHKCYDIVPTSSKLVVFDTTLQVKKAFFALVANGVRAAPLWESKKQSFVGMLTITDFINILHRYYKSPMVQIYELEEHKIETWRELYLQETFKPLVNISPDASLFDAVYSLIKNKIHRLPVIDPISGNALYILTHKRILKFLQLFMSDMPKPAFMKQNLDELGIGTYHNIAFIHPDTPIIKALNIFVERRISALPVVDESGKVVDIYSKFDVINLAAEKTYNNLDITVTQALQHRSQYFEGVVKCNKLEILETIVDRIVRAEVHRLVVVNEADSIVGIISLSDILQALILTPAGAKQKETETE,soluble
20,SLEKSGFIVHQKFDSILQLEDFDSLDRALKESESYYQKLPSNWKTQVRKTSYHKNQMLNSLKILKKILREKNPESRKIQFQNSFLLLETKDEALGRITAYYEVIIEGRFYPEGDFIYPVLETPSDLIVKKDGNKKSVGKIINEVFVPYETREELSHTSVWKKRSKAIVYVKIVDLHLAQLEGSAFVKVPDHIPFRITYSEDNGKEYQSPAESLKGICSSLIPSDLKSCILKYPKEVEMAILKNPRYIFFKLESSAPRGSGGIELIPKRSVAMDPGIPLGIPVLISFESSVLTEKNRIVFVHDRGSQITGHGRLDYFLGTGETAEYQAGKINTQGKIFLILPKIKN,not soluble
21,SLFKVGKVSYLNTLPLFYSLEGFEVVEGVPSELVEKLRRGEIHAGIVSSVEYFFNPQDYFILSGISISSRGSVCSVKLFSNEPMEKIREVNITKASLTSRELLFYLFEKKFGFVPKESEEAQAKLLIGDEAMEQKGYKFVYDLGEEWFKLHGLPFVFALFLVKRDADISKAKFLKKEIKKSVKNFFEEGIKNIKNKEYFKNCLDYSLGGEHIKSLINFYAYLSRKFKKQVPKLKFVL,soluble
22,SLFLLDPFSGISGDMFLSAMIDFVDKEDFINTIKKVIDVEIEIKKVKKCHILANKVNIIPKCINCNANTYKDIKNVIKSSDIQEDIKITALEILKILAEAESKVHNVDVENVHFHEVGNYDTIADIVGAAYIINKLNLKNNCLYKPINVGNGFVRTEHGLLPVPAPATAEILKGLKIFFSDINEELTTPTGSAIIKYINPKLAKGAFIIKEVSYGAGDKDLNLLNALRVFRVEDIKREDIVLLETNVDDISAEILGYLYEVLDGKVRDLHFIPTYMKKNRPAYTIRAIVDRDIAEEVAKIIMRETGSLGVRIFDIERITADREFKTIKLFDESVRLKVGRVNDEIISQKPEFEDLKNIAKKYGIPLKDLYKLINISQIKN,soluble
23,SLFQIGDNIVYPMHGAGIIEAIEEKEFLEEKQQYYVIRMSISNMTVMIPTSKILSSNIRPVTDILALKHIMHIFQHGESDRLLPWKQRYKINTDKIKTGEIQEGAEVVRDLMRMKKEKALNASEKKMLDNAYEFLISELEVIKGITEKQIKSFG,soluble

# From the DeepSol protein solubility set
